# According to publication PMC8956632:
# B1: OX1R-EGFP [human] / 5-HT1AR-Rluc [human] (parent)
# chain 1: MEPSATPGAQMGVPPGSREPSPVPPDYEDEFLRYLWRDYLYPKQYEWVLIAAYVAVFVVALVGNTLVCLAVWRNHHMRTVTNYFIVNLSLADVLVTAICLPASLLVDITESWLFGHALCKVIPYLQAVSVSVAVLTLSFIALDRWYAICHPLLFKSTARRARGSILGIWAVSLAIMVPQAAVMECSSVLPELANRTRLFSVCDERWADDLYPKIYHSCFFIVTYLAPLGLMAMAYFQIFRKLWGRQIPGTTSALVRNWKRPSDQLGDLEQGLSGEPQPRARAFLAEVKQMRARRKTAKMLMVVLLVFALCYLPISVLNVLKRVFGMFRQASDREAVYACFTFSHWLVYANSAANPIIYNFLSGKFREQFKAAFSCCLPGLGPCGSLKAPSPRSSASHKSLSLQSRCSISKISEHVVLTSVTTVLP
# chain 2: MDVLSPGQGNNTTSPPAPFETGGNTTGISDVTVSYQVITSLLLGTLIFCAVLGNACVVAAIALERSLQNVANYLIGSLAVTDLMVSVLVLPMAALYQVLNKWTLGQVTCDLFIALDVLCCTSSILHLCAIALDRYWAITDPIDYVNKRTPRRAAALISLTWLIGFLISIPPMLGWRTPEDRSDPDACTISKDHGYTIYSTFGAFYIPLLLMLVLYGRIFRAARFRIRKTVKKVEKTGADTRHGASPAPQPKKSVNGESGSRNWRLGVESKAGGALCANGAVRQGDDGAALEVIEVHRVGNSKEHLPLPSEAGPTPCAPASFERKNERNAEAKRKMALARERKTVKTLGIIMGTFILCWLPFFIVALVLPFCESSCHMPTLLGAIINWLGYSNSLLNPVIYAYFNKDFQNAFKKIIKCKFCRQ
# B2: 5-HT1AR-EGFP [human] / OX1R-Rluc [human] (parent)
# chain 1: B1 chain 2
# chain 2: B1 chain 1
# Variants of: B1
# Assay: BRET
# Conditions: with 5-HT1AR-Rluc [human]; HEK293 cells, basal (no agonist); parent: 0.27; read off a plot
row,Variant,response
1,chain 1 L225A,0.23
2,chain 1 L230A,0.21
3,chain 1 M176A,0.15
4,chain 1 R160A,0.27

# Variants of: B2
# Assay: BRET
# Conditions: with OX1R-Rluc [human]; HEK293 cells, basal (no agonist); parent: 0.26; read off a plot
row,Variant,response
1,chain 1 Y198A,0.23
2,chain 1 W175A,0.26
3,chain 1 R151A,0.16
